Entries after “also recorded” stand apart in the source; their conditions may differ.
Legend:
ACBP1 to ACBP5 mRNA = experiment: RT-PCR of ACBP transcripts in root after Pb(II) treatment; format: in vivo, Arabidopsis thaliana; conditions: 1 mM Pb(NO3)2, 24 h, 3-week-old Col-0 seedlings, FIG. 1
Procedure: (§1) Arabidopsis thaliana wild-type Columbia (ecotype Col-0), ACBP1- and ACBP3-overexpressing transgenic plants (ecotype Col-0) were grown under 8 h dark at 21° C. and 16 h light at 23° C. cycles. For Pb(II)-inducible gene expression analysis, Arabidopsis seedlings were grown for 3 weeks in continuous light, treated with 1 mM Pb(NO3)2 or water (as control), and shoot and root samples were collected at 24 h post-treatment. For Pb(II) sensitivity tests, Arabidopsis seedlings were surface-sterilized and grown on Murashige and Skoog (Physiol. Plant. 15: 473-497, 1962) medium containing 2% sucrose with or without 0.75 mM Pb(NO3)2 (Sigma-Aldrich, St. Louis) for 2 to 3 weeks.
(§2) To determine if the regulation of Arabidopsis ACBP mRNAs responds to Pb(II) stress, we performed reverse transcription-PCR(RT-PCR) using root tissue RNA following treatment with 1 mM Pb(NO3)2. For RT-PCR, total RNA was extracted with TRIzol (Invitrogen) reagent, according to the manufacturer's protocol, from roots of 3-week-old wild-type Arabidopsis (Col-0) seedlings in the presence or absence (water as control) of 1 mM Pb(NO3)2. RT-PCR analysis was performed as according to the manufacturer (Invitrogen Cat No. 12371-019). Specific primers were designed based on mRNA sequences. […]

ACBP6 transcript = experiment: as above; format: in vivo, Arabidopsis thaliana; conditions: 1 mM Pb(NO3)2, 24 h, 3-week-old Col-0 seedlings, FIG. 1
Procedure: as §1, §2

[1] = Heavy-metal-binding assay using metal-chelate affinity chromatography, Pb(II)-equilibrated matrix; conditions: for binding of in vitro translated ACBP to Pb(II): [35S]methionine-labeled protein, SDS-PAGE autoradiography, FIG. 2B
Excerpt: (§3) The coding regions of ACBP1, ACBP2 and ACBP6 were generated by RT-PCR for construction of pGEM-T EASY (Promega) derivatives for in vitro transcription/translation. Primers used in RT-PCR were as follows: ACBP1 (ML190 (SEQ ID NO:20) and ML917 (SEQ ID NO:17), ACBP2 (ML902 (SEQ ID NO:21) and ML903 (SEQ ID NO:22)), and ACBP6 (ML812 (SEQ ID NO:23) and ML751 (SEQ ID NO:2)). The PCR products were subsequently cloned into pGEM-T EASY vector (Promega) for in vitro transcription/translation using the TNT® T7/SP6 Coupled Wheat Germ Extract System (Promega) following the manufacturer's instruction. Pb(II)-, Cd(II)-, and Cu(II)-equilibrated matrices for metal-binding assays were prepared by stripping Ni-NTA agarose (Qiagen) of nickel and re-equilibrating with 0.1 M Pb(NO3)2 (Aldrich), CdCl2 (Aldrich), or CuCl2 (Aldrich). Twenty μl of Pb(II)-, Cd(II)-, or Cu(II)-equilibrated matrix, 545 μl of 50 mM KH2PO4, 300 mM NaCl, pH 7.4, and [^35S]methionine-labeled protein were added to a microfuge tube (Dykema et al., Plant Mol. Biol. 41: 139-150, 1999) and rotated on a wheel at 4° C. for 1 h. Subsequently, the matrix was washed 3 times with 1.0 ml of 50 mM KH2PO4, 300 mM NaCl, pH 7.5. The binding protein was eluted with 200 μl of 50 mM KH2PO4, 300 mM NaCl, 500 mM imidazole, pH 4.5, followed by extraction with 200 μl of 2% SDS, 50 mM DTT, heating at 85° C. for 3 min and analysis by SDS-PAGE followed by autoradiography.

[2] = Heavy-metal-binding assay using metal-chelate affinity chromatography, Cd(II)-equilibrated matrix; conditions: FIG. 2C
Excerpt: as §3, with “The binding protein was eluted with 200 μl of 50 mM KH2PO4, 300 mM NaCl, 500 mM imidazole, pH 4.5, followed by extraction with 200 μl of 2% SDS, 50 mM DTT, heating at 85° C. for 3 min and analysis by SDS-PAGE followed by autoradiography.” left out

[3] = Heavy-metal-binding assay using metal-chelate affinity chromatography, Cu(II)-equilibrated matrix; conditions: FIG. 2C
Excerpt: as §3, with “The binding protein was eluted with 200 μl of 50 mM KH2PO4, 300 mM NaCl, 500 mM imidazole, pH 4.5, followed by extraction with 200 μl of 2% SDS, 50 mM DTT, heating at 85° C. for 3 min and analysis by SDS-PAGE followed by autoradiography.” left out

[4] = Lead-binding assay, fluorescence of dansylated (His)6-ACBP; conditions: 1 to 9 μM Pb(II), FIG. 2A
Procedure: Lead-binding assays and fluorescence measurements were carried out according to Funaba and Mathews (Mol. Endocrinol. 14:1583-1591, 2000) with minor modifications. Briefly, 3.2 μM of each purified (His)6-ACBP protein which was equilibrated in 20 mM phosphate buffer (pH 7.2) with 200 mM NaCl, were labeled with 8 μl of 200 mM dansyl aziridine (Molecular Probes, Cat. No. D151) and reacted for 2 h in a 1.5 ml Eppendorf tube at room temperature. The dansylated (His)6-ACBP proteins were then distributed to 8 wells of a 96-well microtiter plate (Nunc Cat. No. 236105). Various concentrations (0, 1.0, 2.0, 3.0, 4.0, 5.0, 7.0 and 9.0 μM) of Pb(NO3)2 (Aldrich, Cat. No. 203580) solutions were added and the reactions were incubated at room temperature for 1 h.
Fluorescence measurements were performed using a BIO-TEK FL600 Fluorescence Plate Reader (BIO-TEK Instrument, INC, USA) with excitation wavelength set at 360/40 nm and emission wavelength set at 530/25 nm. Prior to binding with lead, the dansyl aziridine coupled (His)6-ACBP recombinant proteins are sensitive to the conformational changes. After binding to Pb(II) molecules, the dansylated (His)6-ACBP recombinant proteins would change their conformations and the dye will show an increase in fluorescence excitation. […] Each experiment was repeated three times to ascertain results.

[5] = EDTA at 50 mM final concentration
[6] = [35S]methionine-labeled protein

O=[N+]([O-])[O-].O=[N+]([O-])[O-].[Pb+2] [Pb(II)]
mRNA expressions of ACBP1 to ACBP5 in roots (ACBP1 to ACBP5 mRNA): increase | transcript of ACBP6 in roots (ACBP6 transcript): little change

O=C(O)CN(CCN(CC(=O)O)CC(=O)O)CC(=O)O [EDTA, ethylenediaminetetraacetic acid, reference compound]
effect on binding of ACBP2 to Pb(II) ([1]; EDTA at 50 mM final concentration, FIG. 2C): inhibited | effect on binding of ACBP2 to Cd(II) [2, 5]: inhibited | effect on binding of ACBP2 to Cu(II) [3, 5]: inhibited

B1: (His)6-ACBP6: recombinant (His)6-ACBP6, 18.9 kDa inclusive of His-tag, from vector pAT335 in E. coli (protein, UniProt P57752 1-92, looked up)
Acyl-CoA-binding …: MGLKEEFEEHAEKVNTLTELPSNEDLLILYGLYKQAKFGPVDTSRPGMFSMKERAKWDAWKAVEGKSSEEAMNDYITKVKQLLEVAASKAST
modifications: His6 tag
notes: recombinant (His)6-ACBP6, 18.9 kDa inclusive of His-tag, from vector pAT335 in E. coli
relative fluorescence intensity in the presence of Pb(II), indicative of binding to Pb(II) [4]: bind Pb(II) less well than ACBP1

B2: ACBP6: in vitro translated [35S]methionine-labeled Arabidopsis ACBP6 (SEQ ID NO: 26), 10-kDa ACBP (protein)
chain: B1 Acyl-CoA-binding …
modifications: Arabidopsis
binding of in vitro translated ACBP to Pb(II) [1]: bind Pb(II) less well than ACBP1

B3: ACBP1: in vitro translated [35S]methionine-labeled Arabidopsis ACBP1 (SEQ ID NO: 27), wheat germ extract system (protein)
chain: MADWYQLAQSIIFGLIFAYLLAKLISILLAFKDENLSLTRNHTTQSEYENLRKVETLIGISGETDSLIAEQGSLRGDEDESDDDDWEGVESTELDEAFSAATAFVAAAASDRLSQKVSNELQLQLYGLYKIATEGPCTAPQPSALKMTARAKWQAWQKLGAMPPEEAMEKYIDLVTQLYPAWVEGGSKRRNRSGEAAGPMGPVFSSLVYEEESDNELKIDAIHAFAREGEVENLLKCIENGIPVNARDSEGRTPLHWAIDRGHLNVAEALVDKNADVNAKDNEGQTSLHYAVVCEREALAEFLVKQKADTTIKDEDGNSPLDLCESEWSWMREKKDSN
modifications: Arabidopsis
binding of in vitro translated ACBP to Pb(II) [1]: bind Pb(II) better than ACBP6; also recorded: slightly better binding than ACBP2

B4: (His)6-ACBP4: recombinant (His)6-ACBP4 from pRSET B-derived vector pAT184 in E. coli (protein, UniProt Q9MA55 1-668, looked up)
Acyl-CoA-binding …: MAMPRATSGPAYPERFYAAASYVGLDGSDSSAKNVISKFPDDTALLLYALYQQATVGPCNTPKPSAWRPVEQSKWKSWQGLGTMPSIEAMRLFVKILEEDDPGWYSRASNDIPDPVVDVQINRAKDEPVVENGSTFSETKTISTENGRLAETQDKDVVSEDSNTVSVYNQWTAPQTSGQRPKARYEHGAAVIQDKMYIYGGNHNGRYLGDLHVLDLKSWTWSRVETKVATESQETSTPTLLAPCAGHSLIAWDNKLLSIGGHTKDPSESMQVKVFDPHTITWSMLKTYGKPPVSRGGQSVTMVGKTLVIFGGQDAKRSLLNDLHILDLDTMTWDEIDAVGVSPSPRSDHAAAVHAERFLLIFGGGSHATCFDDLHVLDLQTMEWSRPAQQGDAPTPRAGHAGVTIGENWFIVGGGDNKSGASESVVLNMSTLAWSVVASVQGRVPLASEGLSLVVSSYNGEDVLVAFGGYNGRYNNEINLLKPSHKSTLQTKTLEAPLPGSLSAVNNATTRDIESEVEVSQEGRVREIVMDNVNPGSKVEGNSERIIATIKSEKEELEASLNKERMQTLQLRQELGEAELRNTDLYKELQSVRGQLAAEQSRCFKLEVDVAELRQKLQTLETLQKELELLQRQKAASEQAAMNAKRQGSGGVWGWLAGSPQEKDDDSP
modifications: His6 tag
notes: recombinant (His)6-ACBP4 from pRSET B-derived vector pAT184 in E. coli
relative fluorescence intensity in the presence of Pb(II), indicative of binding to Pb(II) [4]: much higher than the other recombinant ACBPs

B5: ACBP2 (protein)
chain: MGDWAQLAQSVILGLIFSYLLAKLISIVVTFKEDNLSLTRHPEESQLEIKPEGVDSRRLDSSCGGFGGEADSLVAEQGSSRSDSVAGDDSEEDDDWEGVESTELDEAFSAATLFVTTAAADRLSQKVPSDVQQQLYGLYKIATEGPCTAPQPSALKMTARAKWQAWQKLGAMPPEEAMEKYIEIVTQLYPTWLDGGVKAGSRGGDDAASNSRGTMGPVFSSLVYDEESENELKIDAIHGFAREGEVENLLKSIESGIPVNARDSEGRTPLHWAIDRGHLNIAKVLVDKNADVNAKDNEGQTPLHYAVVCDREAIAEFLVKQNANTAAKDEDGNSPLDLCESDWPWIRDSAKQAD
modifications: Arabidopsis
binding of in vitro translated ACBP to Pb(II) [1]: bind Pb(II) better than ACBP6 | binding of in vitro translated ACBP to Cd(II) [2, 6]: binds Cd(II) and Cu(II) better than ACBP6 | binding of in vitro translated ACBP to Cu(II) [3, 6]: binds Cd(II) and Cu(II) better than ACBP6

Source: patent US7880053B2, “Methods of using transformed plants expressing plant-derived acyl-coenzyme-A-binding proteins in phytoremediation” (priority 2007, dated 2011)
